These results are taken from article PMC7045643, “Allosteric inhibition of CRISPR-Cas9 by bacteriophage-derived peptides” (Genome Biology, 2020).

The target in the assay is Streptococcus pyogenes Cas9 (SpCas9) protein, wild type (Streptococcus pyogenes) (UniProt Q99ZW2).

“M13 phage major coat protein G8P periplasmic domain peptide (M13 G8PPD)” gave an inhibition of the in vitro DNA cleavage activity of 50 nM SpCas9, peptide added before sgRNA (IC50) of 5 µM.
